Test results from article PMC4944982.

Legend:
[1] = molecular target: endogenous FGF receptor of untransfected HEK293T cells (human (endogenous in HEK293T)) (UniProt P11362)
[2] = molecular target: human FGFR1 (transcript variant 2), overexpressed on HEK293T cells (human) (UniProt P11362); assay: bioluminescent (NanoLuc) competition binding on living cells; adherent HEK293T cells transiently overexpressing human FGFR1; constant FGF2-Luc as tracer and various concentrations of wild-type or mutant FGF2 in serum-free DMEM plus 1% BSA and 5 μg/ml heparin, 20°C, 2–3 h
[3] = molecular target: endogenous FGF receptor of untransfected HEK293T cells (human (endogenous in HEK293T)) (UniProt P11362); assay: bioluminescent (NanoLuc) competition binding on living cells; untransfected HEK293T cells in suspension in a 96-well filtration plate; constant FGF2-Luc as tracer and various concentrations of wild-type or mutant FGF2 in serum-free DMEM plus 1% BSA and 5 μg/ml heparin, 20°C, 2–3 h
[4] = molecular target: endogenous FGF receptor of untransfected HEK293T cells (human (endogenous in HEK293T)) (UniProt P11362); assay: bioluminescent (NanoLuc) saturation binding on living cells; untransfected HEK293T cells in suspension in a 96-well filtration plate; various concentrations of FGF2-Luc in serum-free DMEM plus 1% BSA and 5 μg/ml heparin, 20°C, 2–3 h; nonspecific binding with 250 nM 6×His-FGF2; one-site model
[5] = molecular target: human FGFR1 (transcript variant 2), overexpressed on HEK293T cells (human) (UniProt P11362); assay: bioluminescent (NanoLuc) saturation binding on living cells; adherent HEK293T cells transiently overexpressing human FGFR1 in 96-well plates; various concentrations of FGF2-Luc in serum-free DMEM plus 1% BSA and 5 μg/ml heparin, 20°C, 2–3 h; nonspecific binding with 250 nM 6×His-FGF2; one-site model

| EC50 of activation of a serum response element (SRE)-controlled NanoLuc reporter in HEK293T cells [1] | IC50 [2] | IC50 [3] | Kd [4] | Kd [5] | Substance |
| --- | --- | --- | --- | --- | --- |
| 0.1 nM |  |  |  |  | 6×His-[C95S]FGF2 (ligand) |
|  |  |  | 0.025 nM | 0.161 nM | NanoLuc-conjugated FGF2 (FGF2-Luc) (ligand) |

The remaining lines, values behind:

| Substance | EC50 of activation of a serum response element (SRE)-controlled NanoLuc reporter in HEK293T cells [1] | IC50 [2] | IC50 [3] | Kd [4] | Kd [5] |
| --- | --- | --- | --- | --- | --- |
| 6×His-FGF2 (ligand) | 0.058 nM | 0.65 nM | 0.081 nM |  |  |
| 6×His-[Y32A]FGF2 (ligand) | 0.309 nM | 3.45 nM | 5.4 nM |  |  |
| 6×His-[Y111A]FGF2 (ligand) | 0.794 nM | 5.88 nM | 10 nM |  |  |
